# Test results: the supplement of paper PMC9732359
# ± gives the uncertainty stated by the source.
# Experiment: protein stability index of a GFP-peptide fusion (yeast GPS) (PSI 1-4); higher = more stable; sorted into four equal gates, so the index is relative within each strain
# Procedure, shortened: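 Tiled 17-residue peptides from yeast proteins were fused downstream of GFP on a plasmid that also expresses Cherry, and the pooled library was carried in yeast. Mid-log cultures grown in leucine-free medium were sorted into four equal gates by GFP/Cherry fluorescence ratio. Plasmids from each gate were PCR-amplified and Illumina-sequenced, and reads were assigned to strains by barcodes. Each peptide's protein stability index is the sum, over gates, of the gate's read frequency multiplied by its gate number.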
sequence,measurement,setting,value
LKFNHGNYSHLMEKNRI [REC8],protein stability index,doa10∆,2.06 ± 0.073
same,protein stability index,pdr5∆,2.47 ± 0.056
same,protein stability index,san1∆,2.28 ± 0.064
same,protein stability index,ubr1∆,2.52 ± 0.052
NEVKEWAVTLDTSRPDL [DSN1],protein stability index,doa10∆,2.96 ± 0.11
same,protein stability index,pdr5∆,3.15 ± 0.091
same,protein stability index,san1∆,3.02 ± 0.052
same,protein stability index,ubr1∆,3.15 ± 0.041
DDTKNQDSMSKGTGEES [YGR119C/NUP57],protein stability index,doa10∆,3.16 ± 0.077
same,protein stability index,pdr5∆,3.14 ± 0.16
same,protein stability index,san1∆,3.21 ± 0.082
same,protein stability index,ubr1∆,3.42 ± 0.057
DNNSKAEASFTFGTKHA [YLR335W/NUP2],protein stability index,doa10∆,3.21 ± 0.082
same,protein stability index,pdr5∆,3.09 ± 0.076
same,protein stability index,san1∆,2.93 ± 0.049
same,protein stability index,ubr1∆,3.02 ± 0.053
ILGMLSLADNEIALKGL [YCS4],protein stability index,doa10∆,2.42 ± 0.053
same,protein stability index,pdr5∆,2.08 ± 0.068
same,protein stability index,san1∆,2.11 ± 0.089
same,protein stability index,ubr1∆,2.25 ± 0.056
SNTYKEERSNNLLTPQP [MCD1],protein stability index,doa10∆,2.76 ± 0.078
same,protein stability index,pdr5∆,3.18 ± 0.094
same,protein stability index,san1∆,3.01 ± 0.046
same,protein stability index,ubr1∆,3.2 ± 0.051
NNNQKIDDNYIVVVIEI [SRB8],protein stability index,doa10∆,3.16 ± 0.078
same,protein stability index,pdr5∆,3.01 ± 0.065
same,protein stability index,san1∆,3.29 ± 0.083
same,protein stability index,ubr1∆,3.11 ± 0.1
PQVLINRDPVKHAEFDL [SIR2],protein stability index,doa10∆,2.39 ± 0.14
same,protein stability index,pdr5∆,3.04 ± 0.093
same,protein stability index,san1∆,3.08 ± 0.12
same,protein stability index,ubr1∆,2.79 ± 0.1
DLAMANSLRRVMIAEIP [RPB3],protein stability index,doa10∆,1.23 ± 0.061
same,protein stability index,pdr5∆,1.36 ± 0.051
same,protein stability index,san1∆,1.09 ± 0.18
same,protein stability index,ubr1∆,1.44 ± 0.068
QETCDKLRARLVEYGFD [SMC2],protein stability index,doa10∆,2.17 ± 0.14
same,protein stability index,pdr5∆,2.52 ± 0.093
same,protein stability index,san1∆,1.96 ± 0.089
same,protein stability index,ubr1∆,1.57 ± 0.034
QSEDLSHAVEFFMSERS [YML103C/NUP188],protein stability index,doa10∆,3.29 ± 0.077
same,protein stability index,pdr5∆,3.37 ± 0.089
same,protein stability index,san1∆,3.25 ± 0.066
same,protein stability index,ubr1∆,3.18 ± 0.059
IEAGRAALYKEVYNVIA [RPO21],protein stability index,doa10∆,2.36 ± 0.085
same,protein stability index,pdr5∆,1.88 ± 0.096
same,protein stability index,san1∆,2.41 ± 0.13
same,protein stability index,ubr1∆,2.82 ± 0.11
KPTDATGNTTSKSAFSF [YOR098C/NUP1],protein stability index,doa10∆,2.04 ± 0.12
same,protein stability index,pdr5∆,2.57 ± 0.088
same,protein stability index,san1∆,2.1 ± 0.12
same,protein stability index,ubr1∆,2.46 ± 0.11
KIITSRPLQKIMLLQLE [SIN4],protein stability index,doa10∆,2.12 ± 0.06
same,protein stability index,pdr5∆,2.08 ± 0.052
same,protein stability index,san1∆,2 ± 0.071
same,protein stability index,ubr1∆,1.63 ± 0.044
TGGTRTKTPGPGGQAAL [RPS14A],protein stability index,doa10∆,3.24 ± 0.04
same,protein stability index,pdr5∆,3.11 ± 0.036
same,protein stability index,san1∆,3.05 ± 0.034
same,protein stability index,ubr1∆,3.149 ± 0.028
FSPDGHIFQVEYALEAV [PRE6],protein stability index,doa10∆,3 ± 0.057
same,protein stability index,pdr5∆,3.07 ± 0.054
same,protein stability index,san1∆,3.1 ± 0.035
same,protein stability index,ubr1∆,3.18 ± 0.037
GIVETNRPDNKNAQYHL [RPN7],protein stability index,doa10∆,3.17 ± 0.11
same,protein stability index,pdr5∆,3.21 ± 0.13
same,protein stability index,san1∆,3.4 ± 0.069
same,protein stability index,ubr1∆,3.06 ± 0.054
LLFKARLQQQQAQAQAQ [GAL11],protein stability index,doa10∆,1.3 ± 0.081
same,protein stability index,pdr5∆,1.59 ± 0.075
same,protein stability index,san1∆,1.3 ± 0.14
same,protein stability index,ubr1∆,1.5 ± 0.056
QLVEITEQIKMRILSND [SRB8],protein stability index,doa10∆,2.49 ± 0.045
same,protein stability index,pdr5∆,2.45 ± 0.043
same,protein stability index,san1∆,2.44 ± 0.043
same,protein stability index,ubr1∆,2.48 ± 0.034
QELCYPDENHDNTSHDE [BRN1],protein stability index,doa10∆,3.23 ± 0.073
same,protein stability index,pdr5∆,3.27 ± 0.061
same,protein stability index,san1∆,2.98 ± 0.061
same,protein stability index,ubr1∆,3.35 ± 0.056
FKLFNKYRPETAAEKKE [RPL8A],protein stability index,doa10∆,2.56 ± 0.079
same,protein stability index,pdr5∆,2.64 ± 0.083
same,protein stability index,san1∆,2.5 ± 0.083
same,protein stability index,ubr1∆,2.74 ± 0.071
NNIFKEFTSKIGFTIKE [SMC1],protein stability index,doa10∆,2.34 ± 0.054
same,protein stability index,pdr5∆,2.69 ± 0.063
same,protein stability index,san1∆,2.76 ± 0.1
same,protein stability index,ubr1∆,2.7 ± 0.046
VMESGAKGCEVVVSGKL [RPS3],protein stability index,doa10∆,3.04 ± 0.23
same,protein stability index,san1∆,3 ± 0.24
KCVVIHNGSHRTVAGFS [ARP7],protein stability index,doa10∆,2.67 ± 0.051
same,protein stability index,pdr5∆,2.74 ± 0.048
same,protein stability index,san1∆,2.54 ± 0.051
same,protein stability index,ubr1∆,2.67 ± 0.035
IKTFLVDLTSSNFADSA [YDL116W/NUP84],protein stability index,doa10∆,2.3 ± 0.089
same,protein stability index,pdr5∆,2.82 ± 0.094
same,protein stability index,san1∆,2.78 ± 0.1
same,protein stability index,ubr1∆,2.76 ± 0.069
SDSYKVSLQNFSSSVSL [RRP40],protein stability index,doa10∆,2.69 ± 0.055
same,protein stability index,pdr5∆,1.8 ± 0.044
same,protein stability index,san1∆,2.02 ± 0.079
same,protein stability index,ubr1∆,1.91 ± 0.037
